Assay results taken from patent US11230581B2, “Peptides and combination of peptides for use in immunotherapy against ovarian cancer and other cancers” (Immatics Biotechnologies GmbH, priority 2015, dated 2022).

Target: HLA-A*02:01 (Homo sapiens, UniProt P04439, D140Y/D185E/D98H/E176V/E277Q/G131W/G231S/I119V/I121R/I166T/I218V/L300P/L318F/N151K/N90K/P208A/P217A/Q86G/Q94H/R138H/R169H/T345S)
Assay: MHC binding assay (UV-ligand exchange, β2m ELISA, peptide exchange yield)
Details: binding of HLA-class I restricted peptides to HLA-A*02:01, UV-ligand exchange
Excerpt: Candidate peptides for T cell based therapies according to the present invention were further tested for their MHC binding capacity (affinity). The individual peptide-MHC complexes were produced by UV-ligand exchange, where a UV-sensitive peptide is cleaved upon UV-irradiation, and exchanged with the peptide of interest as analyzed. Only peptide candidates that can effectively bind and stabilize the peptide-receptive MHC molecules prevent dissociation of the MHC complexes. To determine the yield of the exchange reaction, an ELISA was performed based on the detection of the light chain (β2m) of stabilized MHC complexes. The assay was performed as generally described in Rodenko et al. (Rodenko et al., 2006).
96 well MAXISorp plates (NUNC) were coated over night with 2 ug/ml streptavidin in PBS at room temperature, washed 4× and blocked for 1h at 37° C. in 2% BSA containing blocking buffer. […] Peptide-MHC monomers of the UV-exchange reaction were diluted 100 fold in blocking buffer. Samples were incubated for 1 h at 37° C., washed four times, incubated with 2 ug/ml HRP conjugated anti-β2m for 1h at 37° C., washed again and detected with TMB solution that is stopped with […]. Absorption was measured at 450 nm. Candidate peptides that show a high exchange yield (preferably higher than 50%, most preferred higher than 75%) are generally preferred for a generation and production of antibodies or fragments thereof, and/or T cell receptors or fragments thereof, as they show sufficient avidity to the MHC molecules and prevent dissociation of the MHC complexes.

Peptide exchange (MHC class I binding score, peptide exchange yield)	Substance
“+++” (≥50 = +++)	120 (ALLGIPLTLV; listed as Homo sapiens) [compound 120]
“+++” (≥50 = +++)	122 (FLLAEDDIYL; listed as Homo sapiens) [compound 122]
“++” (≥20% = ++)	127 (KIGDEPPKV; listed as Homo sapiens) [compound 127]
“+++” (≥50 = +++)	130 (FLWNGEDSALL; listed as Homo sapiens) [compound 130]
“++” (≥20% = ++)	131 (FVPPVTVFPSL; listed as Homo sapiens) [compound 131]
“+++” (≥50 = +++)	132 (LLVEQPPLAGV; listed as Homo sapiens) [compound 132]
“+++” (≥50 = +++)	134 (YLQELIFSV; listed as Homo sapiens) [compound 134]
“+++” (≥50 = +++)	139 (SVMEVNSGIYRV; listed as Homo sapiens) [compound 139]
“++” (≥20% = ++)	140 (YMDAPKAAL; listed as Homo sapiens) [compound 140]
“+++” (≥50 = +++)	142 (FLFATPVFI; listed as Homo sapiens) [compound 142]
“++” (≥20% = ++)	145 (FLATSGTLAGI; listed as Homo sapiens) [compound 145]
“++” (≥20% = ++)	146 (SLATAGDGLIEL; listed as Homo sapiens) [compound 146]
“+++” (≥50 = +++)	147 (SLLEAVSFL; listed as Homo sapiens) [compound 147]
“+++” (≥50 = +++)	149 (NLLELFVQL; listed as Homo sapiens) [compound 149]
“+++” (≥50 = +++)	150 (RLWEEGEELEL; listed as Homo sapiens) [compound 150]
“+++” (≥50 = +++)	151 (KILQQLVTL; listed as Homo sapiens) [compound 151]
“+++” (≥50 = +++)	152 (ILFEDIFDV; listed as Homo sapiens) [compound 152]
“+” (≥10% = +)	153 (FLIANVLYL; listed as Homo sapiens) [compound 153]
“++” (≥20% = ++)	154 (ALDDGTPAL; listed as Homo sapiens) [compound 154]
“++++” (≥75% = ++++)	159 (GLVGNPLPSV; listed as Homo sapiens) [compound 159]
“+++” (≥50 = +++)	160 (FLFDEEIEQI; listed as Homo sapiens) [compound 160]
“+++” (≥50 = +++)	164 (ALLPQPKNLTV; listed as Homo sapiens) [compound 164]
“+++” (≥50 = +++)	170 (RLQETLSAA; listed as Homo sapiens) [compound 170]
“+++” (≥50 = +++)	175 (YLFENISQL; listed as Homo sapiens) [compound 175]
“++” (≥20% = ++)	176 (YLMEGSYNKVFL; listed as Homo sapiens) [compound 176]
“++++” (≥75% = ++++)	177 (YLLPEEYTSTL; listed as Homo sapiens) [compound 177]
“++++” (≥75% = ++++)	178 (ALTEIAFVV; listed as Homo sapiens) [compound 178]

The next lines start with the substance.

Substance	Peptide exchange (MHC class I binding score, peptide exchange yield)
118 (KLIDNNINV; listed as Homo sapiens) [compound 118]	“+++” (≥50 = +++)
119 (FLYIGDIVSL; listed as Homo sapiens) [compound 119]	“++++” (≥75% = ++++)
121 (GVVDPRAISVL; listed as Homo sapiens) [compound 121]	“++” (≥20% = ++)
123 (NLWDLTDASVV; listed as Homo sapiens) [compound 123]	“+++” (≥50 = +++)
124 (ALYETELADA; listed as Homo sapiens) [compound 124]	“++” (≥20% = ++)
125 (VQIHQVAQV; listed as Homo sapiens) [compound 125]	“+++” (≥50 = +++)
126 (VLAYFLPEA; listed as Homo sapiens) [compound 126]	“++++” (≥75% = ++++)
128 (YLFDDPLSAV; listed as Homo sapiens) [compound 128]	“++” (≥20% = ++)
129 (GLLDGGVDILL; listed as Homo sapiens) [compound 129]	“+++” (≥50 = +++)
133 (KVLSNIHTV; listed as Homo sapiens) [compound 133]	“++” (≥20% = ++)
135 (ALSEVDFQL; listed as Homo sapiens) [compound 135]	“+++” (≥50 = +++)
136 (YLADPSNLFVV; listed as Homo sapiens) [compound 136]	“+++” (≥50 = +++)
137 (TLVLTLPTV; listed as Homo sapiens) [compound 137]	“++++” (≥75% = ++++)
138 (YQYPRAILSV; listed as Homo sapiens) [compound 138]	“+++” (≥50 = +++)
141 (YLDFSNNRL; listed as Homo sapiens) [compound 141]	“++” (≥20% = ++)
143 (LLLDITPEI; listed as Homo sapiens) [compound 143]	“++++” (≥75% = ++++)
144 (YIMEPSIFNTL; listed as Homo sapiens) [compound 144]	“+++” (≥50 = +++)

Substance	Peptide exchange (MHC class I binding score, peptide exchange yield)
148 (ALNPEIVSV; listed as Homo sapiens) [compound 148]	“++” (≥20% = ++)
155 (RVANLHFPSV; listed as Homo sapiens) [compound 155]	“+++” (≥50 = +++)
157 (SLNDEVPEV; listed as Homo sapiens) [compound 157]	“++” (≥20% = ++)
158 (KLFDVDEDGYI; listed as Homo sapiens) [compound 158]	“+++” (≥50 = +++)
161 (ALLEGVNTV; listed as Homo sapiens) [compound 161]	“+++” (≥50 = +++)
162 (YQQAQVPSV; listed as Homo sapiens) [compound 162]	“+++” (≥50 = +++)
163 (ALDEMGDLLQL; listed as Homo sapiens) [compound 163]	“+++” (≥50 = +++)
165 (SLLDEIRAV; listed as Homo sapiens) [compound 165]	“+++” (≥50 = +++)
166 (YLNHLEPPV; listed as Homo sapiens) [compound 166]	“+++” (≥50 = +++)
167 (KVLEVTEEFGV; listed as Homo sapiens) [compound 167]	“+++” (≥50 = +++)
168 (KILDADIQL; listed as Homo sapiens) [compound 168]	“++++” (≥75% = ++++)
169 (NLPEYLPFV; listed as Homo sapiens) [compound 169]	“+++” (≥50 = +++)
171 (LLLPLQILL; listed as Homo sapiens) [compound 171]	“+++” (≥50 = +++)
172 (VLYSYTIITV; listed as Homo sapiens) [compound 172]	“++” (≥20% = ++)
173 (LLDSASAGLYL; listed as Homo sapiens) [compound 173]	“+++” (≥50 = +++)
174 (ALAQYLITA; listed as Homo sapiens) [compound 174]	“+++” (≥50 = +++)
179 (KVLNELYTV; listed as Homo sapiens) [compound 179]	“+++” (≥50 = +++)
